# The nanobody polyreactivity screen of Harvey et al. (2022)
# Test: yeast display, Sf9 membrane polyspecificity reagent, FACS + sequencing; frameworks hold sequencing errors
# How it was run: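 After 36–48 hours of galactose induction, yeast (Saccharomyces cerevisiae BJ5465) displaying a synthetic nanobody library were stained at 4 °C for 1 hour with 10% biotinylated, detergent-solubilized Sf9 membrane reagent. Streptavidin microbeads enriched the stained cells before FACS sorting into low and high (top ~1%) gates on anti-HA and streptavidin fluorescence. Each clone's polyreactivity label reflects its gate of origin.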
row,Sequence,polyreactivity (PSR sort gate)
1,QVQLVESGGGLVQAGGSLRLSCAASGSTFDRYAMGWYRQAPGKERELVAAITRGGSTYYADSVKGRFTISRDNAKNTVYLQMNSLKPEDTAVYYCAARYRAYVKLTSYDWGQGTQVTVSS,high polyreactivity
2,QVQLVESGGGLVQAGGSLRLSCAASGSTFDSNVMGWYRQAPGKERELVAVINGSGSNTYYADSVKGRFTISRDNAKNTVYLQMNSLKPEDTAVYYCAVERSVYSYYYWGQGTQVTVSS,high polyreactivity
3,QVQLVESGGGLVQAGGSLRLSCAASGSTFDSYAMGWYRPAPGKERELVAAITDSGSSTYYADSVKGRFTISRDNAKNTVYLQMNSLKPEDTAVYYCATYDYHGWSYYRYDYWGQGTQVTVSS,low polyreactivity
4,QVQLVESGGGLVQAGGSLRLSCAASGSTFDSYAMGWYRQAPGKEREFVAAITWSGGRTYYADCVKGRFTISRDNAKNTVYLQMNSLKPEDTAVYDCSATDPWGWDYYYWGQGSQVTVSS,low polyreactivity
5,QVQLVESGGGLVQAGGSLRLSCAASGSTFDTNAMGWYRQAPGKERELVASISSAGSTNYADSVKGRFTISRDNAKNTVYLQMNSLKPEDTAVYYCAKYYGQFYPPTLGYWGQGTQVTVSS,low polyreactivity
6,QVQLVESGGGLVQAGGSLRLSCAASGSTFDTYAMGWSRPAPGKERELVAAITSGSSTNYADSVKGRFTISRDNAKNTVYLQMNSLKPEDTAVYYCAALGYNVSSRGYYYWGQGTQVTVSS,low polyreactivity
7,QVQLVESGGGLVQAGGSLRLSCAASGSTFDTYAMGWYRQAPGKERELVAAISVSGTSTSYADSVKGRFTISRDNAKNTVYLQMNSLKPEDTAVYYCNATDFSRNPGYARPEYDYWGQGTQVTVSS,low polyreactivity
8,QVQLVESGGGLVQAGGSLRLSCAASGSTFDTYAMGWYRQAPGKERELVATITNSVGNTYYADSVKGRFTISRDNAKNTVYLQMNSLKPEDTAVYYCAAETVYILAPGYYDYDYWGQGTQVTVSS,low polyreactivity
9,QVQLVESGGGLVQAGGSLRLSCAASGSTFDTYAMGWYRQAPGKERELVAVITTGGSTYYADSVKGRFTISRDNAKNTVNLQMNSLKPEDTAVYYCNAGYSVSRRRKYGYWGQGTQVTVSS,high polyreactivity
10,QVQLVESGGGLVQAGGSLRLSCAASGSTFDVNAMGWYRPAPGKERELVAAISFSGGSTYYADSVKGRFTISRDNAKNTVYLQMNSLKPEDTAVYYCAAEEWRSYYEEYDYWGQGTQVTVSS,low polyreactivity
11,QVQLVESGGGLVQAGGSLRLSCAASGSTFDVNTMGWYRQAPGKERELVAAISSSGGDTYYADSVKGRFTISRDNAKNTVYLQMNSLKPDDTAVYYCAARLGFYTYGYTSWYTVYYWGQGTQVTVSS,low polyreactivity
12,QVQLVESGGGLVQAGGSLRLSCAASGSTFDVYAMGWYRQAPGKERELVAAIRSSGGSTFYADSVKGRFTISRDNAKNIVYLQMISLNPEDTAVYYCAARSFVVSGYNKYYEYGYWGQGTHVTVSS,low polyreactivity
13,QVQLVESGGGLVQAGGSLRLSCAASGSTFDVYAMGWYRQAPGKERELVAAISRSGGSTYYADSVKGRFTISRDNAKNTVYLQMNSLKPEDTAVYYCNARLARWGSYEYNYWGQGTQVTVSS,low polyreactivity
14,QVQLVESGGGLVQAGGSLRLSCAASGSTFDVYAMGWYRQAPGKERELVAGISSRGGRTYYADSVKGRFTISRDNAKNTVYLQMNSLKPEDTAVYYCAARYKGNPDRYGYWGQGTQVTVSS,high polyreactivity
15,QVQLVESGGGLVQAGGSLRLSCAASGSTFDVYAMGWYRQAPGKERELVASISITDGSTYYADSVKGRFTISRDNAKNTVYLPMNSLKPEDTAVYYCNAQYGGSYVEYDYWGQGTQVTVSA,low polyreactivity
16,QVQLVESGGGLVQAGGSLRLSCAASGSTFDVYTMGWYRQAPGKERELVATISGDDGSTYYADSEKGRFTISRDNAKNTVSLQMNSLKPEDTAVYYCAADYGGFPNYYSTGDYWGQGTQVTVSS,low polyreactivity
17,QVQLVESGGGLVQAGGSLRLSCAASGSTFDYNAMGWYRQAPGKERELVAAITTVGITYYADSVKGRFTISRDNAKNTVYLQMNSLKPEDTAVYYCAARCVRYGGRYDYWGQGTQVTVSS,high polyreactivity
18,QVQLVESGGGLVQAGGSLRLSCAASGSTFDYYAMGWYRQAPGKERELVATISWSGTDTYYADSVKGRFTISRDNAKNTVYLQMNSLKPEDTAVYYCAADTVYWRGWSGYYYWGQGTQVTVSS,low polyreactivity
19,QVQLVESGGGLVQAGGSLRLSCAASGSTFDYYAMGWYRQAPGKVRELGAAITTSGGSTYYADSVKGRFTISRDNAKNTVYLQINCLKPEDTAVYYCAAESYWYGTSPYYYLYEYDYWGQGTQVTVSS,high polyreactivity
20,QVQLVESGGGLVQAGGSLRLSCAASGSTFDYYDMGWYRPAPGKERELVAAISSGGDSTYYADSVKGRFTISRDNAKNTVYLQFNSLKPEDSAVYYCAAPDESYSVWRLDGLDYWGQGTQVTVSS,high polyreactivity
21,QVQLVESGGGLVQAGGSLRLSCAASGSTFDYYTMGWYRPAPGKERELVAAISSSGGSTYYADSVKGRFTISRDYAKNTVYLQMNSLKPEDTAVYYCAADPSPYGDEYDYWGQGTQVTVSS,low polyreactivity
22,QVQLVESGGGLVQAGGSLRLSCAASGSTFDYYVMGWYRQAPGKERELVASISSGGSTYYADSVKGRFTISRDNAKNTVYLQMNSLKPEDTAVYYCAARYYGRVGGYSIGYNYWGQGTQVTVSS,high polyreactivity

row,Sequence,polyreactivity (PSR sort gate)
1,QVQLVESGGGLVQAGGSLRLSCAASGSTFEANAMGWNRPAPWKERELVAVITWTGGSTYYADSVKGRFTISRDNAKNTVYLQMNSLKPEDTAVYYCAADGVVPGRFFWPAHEYDYWGQGTQVTVSS,low polyreactivity
2,QVQLVESGGGLVQAGGSLRLSCAASGSTFEANAMGWYRQAPGNERELVAVITWTGGSTYYADSVKGRFTISRDNAKNTVYLQMNSLKPEDTAVYYCAADGVVPGRFFWPAHEYDYWGQGTQVTVSS,low polyreactivity
3,QVQLVESGGGLVQAGGSLRLSCAASGSTFEDNTMGWYRQAPGKEREFVADISNIGGDTTYADSVKGRFTISRDNAKNTVYLQMNSLKPEDTAVYYCAAVKGHSQVLSYGYWGQGTQVTVSS,low polyreactivity
4,QVQLVESGGGLVQAGGSLRLSCAASGSTFEHYAMGWYRQAPGKERELVAAISYTGGNTYYADSVKGRFTISRDNAKNTVYLQMNSLKPEDTAVYYCAAAPLYYHRRGYYYWGQGTQVTVSS,high polyreactivity
5,QVQLVESGGGLVQAGGSLRLSCAASGSTFEHYTMGWYRQAPGKERELVAAINGRGGSTYYADSVKGRFTISRDNAKNTVYLQMNSLKPEDTAVYYCAAVYGFRDYDYWGQGTQVTVSS,high polyreactivity
6,QVQLVESGGGLVQAGGSLRLSCAASGSTFELNAMGWYRQAPGKERELVAVITISGGNTYYADSVKGRFTISRDNAKNTVDLPMNSLKPDDTAVYYCAARPITTSITRYGFWGQGTQVTVSS,high polyreactivity
7,QVQLVESGGGLVQAGGSLRLSCAASGSTFENYVMGWDRQAPGKERELVAAISRGGGSTHYADSVKGRFTISRDNANNTVYLQMNSLKPEDTAVYYCAARYQPYVGSRSISTGIYYYWGQGTQVTVSS,low polyreactivity
8,QVQLVESGGGLVQAGGSLRLSCAASGSTFETNAMGLYRQATRKERELVAAISYNGGSTYADSVKGRFTISRDNAKNTVYLHMNSLKPEDSAVYYCAAVRSPRGLGGYWGQGTQVTVAS,low polyreactivity
9,QVQLVESGGGLVQAGGSLRLSCAASGSTFETYAMGWYRQAPGKERELVAVITSDGSTNYADSVKGRFTISRDNAKNTVYLQMNSLKPEDTAGYYCNADYGFYVPAYPIYWIYEYWGQGTQVTVSS,low polyreactivity
10,QVQLVESGGGLVQAGGSLRLSCAASGSTFEYNAMGGYRQAPGKERELVASSTNYADSVKGRFTISRDNAKKTVYLQMTSLKPEDTAVYYCAREQGVNRNHDYWGQGTQVTVSS,low polyreactivity
11,QVQLVESGGGLVQAGGSLRLSCAASGSTFEYNAMGGYRQAPGKERELVASSTNYADSVKGRFTISRDNAKNTVYLQMNSLKPEDTAVYYCAREQGVNRNHDYWGQGTQVTVSS,low polyreactivity
12,QVQLVESGGGLVQAGGSLRLSCAASGSTFEYYAMGWYRQAPGKERELVAAISSGPSTTYADSVKGRFTISRDNAKNTVYLQMNSLKPEDTAVYYCAARTYPSYYVTFEYWGQGTQVTVSS,low polyreactivity
13,QVQLVESGGGLVQAGGSLRLSCAASGSTFEYYAMGWYRQAPGKERELVAAITGSGDNTYYADSVKGRFTISRDYAKNTVYLQMNSLKPEDTAVYYCAATLRVKGQYGRMYYWGQGTQVTVSS,high polyreactivity
14,QVQLVESGGGLVQAGGSLRLSCAASGSTFEYYAMGWYRQAPGKERELVAAITRRGGSTYYADSVKGRFTISRDNAKNTVYLQMNSLKPEDTAVYYCAAVPTQKSPRTHDFWGQGTQVTVSS,low polyreactivity
15,QVQLVESGGGLVQAGGSLRLSCAASGSTFFANAMGWYRQAPGKERELVAAITIGNTNYADSVKGRFTISRDNAKNTVYLQMNSLKPEDTAVYYCNASHVSHYRARDYWGQGTQVTVSS,low polyreactivity
16,QVQLVESGGGLVQAGGSLRLSCAASGSTFFEYTMGWYRQAPGKEREFVADIRGRDGSTSYADSVKGRFTISRDNAKNTVYLQMNSLKPEDTAVYYCAVGVYPSYRGPTFSTRRDYWGQGTQVTVSS,low polyreactivity
17,QVQLVESGGGLVQAGGSLRLSCAASGSTFFFYAMGWYRQAPGKERELVAAISRSGVSTYYADSVKGRFTISRDNAKNNVYLQMNSLKPEDTAVYYCAKGGSRDRYGYWGQGTQVTVSS,high polyreactivity
18,QVQLVESGGGLVQAGGSLRLSCAASGSTFFGNTMGRYRQAPGKERELVAAISRRGGSTYYADSVKGRFTISRDNAKNTVYLQMNSLKPEDTAVYYCAKYYHSGGYTPGKYDYWGQGTQVTVSS,high polyreactivity
19,QVQLVESGGGLVQAGGSLRLSCAASGSTFFGYAMGWYRQAPGKERELVAAIRYNGGHTYYADSVKGRFTISRDYAKNTVYLQMNRLKPEDTAVYYCAVDVVTSYYELTGSFNYWGQGTQVTVSS,low polyreactivity
20,QVQLVESGGGLVQAGGSLRLSCAASGSTFFGYAMGWYRQAPGKERELVAAITYTGDTTYYADSVKGRFTISRDNAKNTVYLQMNSLNPEDTAVYYCAAGGYPVYTGRGMDYWGQGTQVTVSS,low polyreactivity
21,QVQLVESGGGLVQAGGSLRLSCAASGSTFFHYAMGWYRQAPGKERELVAAIDSNGGSTYYADSVKGRFTISRDNAKNTVYLQMNSLKPEDTAVYYCAADDLAEFEYDYWGQGTQVTVSS,low polyreactivity
